This is an account of results in patent US20230203467A1.

Test [1] concerns the target VEGFR-1 on transfected endothelial cells (PAE/VEGFR-1) (UniProt P17948). The test can be described thus: cell-based or functional assay.
The target in test [2] is VEGFR-2 receptor on transfected endothelial cells (PAE/VEGFR-2) (UniProt P35968). The test can be described thus: cell-based or functional assay.

Sequence of UniProt P17948 (P17948 27-1338 limits assumed): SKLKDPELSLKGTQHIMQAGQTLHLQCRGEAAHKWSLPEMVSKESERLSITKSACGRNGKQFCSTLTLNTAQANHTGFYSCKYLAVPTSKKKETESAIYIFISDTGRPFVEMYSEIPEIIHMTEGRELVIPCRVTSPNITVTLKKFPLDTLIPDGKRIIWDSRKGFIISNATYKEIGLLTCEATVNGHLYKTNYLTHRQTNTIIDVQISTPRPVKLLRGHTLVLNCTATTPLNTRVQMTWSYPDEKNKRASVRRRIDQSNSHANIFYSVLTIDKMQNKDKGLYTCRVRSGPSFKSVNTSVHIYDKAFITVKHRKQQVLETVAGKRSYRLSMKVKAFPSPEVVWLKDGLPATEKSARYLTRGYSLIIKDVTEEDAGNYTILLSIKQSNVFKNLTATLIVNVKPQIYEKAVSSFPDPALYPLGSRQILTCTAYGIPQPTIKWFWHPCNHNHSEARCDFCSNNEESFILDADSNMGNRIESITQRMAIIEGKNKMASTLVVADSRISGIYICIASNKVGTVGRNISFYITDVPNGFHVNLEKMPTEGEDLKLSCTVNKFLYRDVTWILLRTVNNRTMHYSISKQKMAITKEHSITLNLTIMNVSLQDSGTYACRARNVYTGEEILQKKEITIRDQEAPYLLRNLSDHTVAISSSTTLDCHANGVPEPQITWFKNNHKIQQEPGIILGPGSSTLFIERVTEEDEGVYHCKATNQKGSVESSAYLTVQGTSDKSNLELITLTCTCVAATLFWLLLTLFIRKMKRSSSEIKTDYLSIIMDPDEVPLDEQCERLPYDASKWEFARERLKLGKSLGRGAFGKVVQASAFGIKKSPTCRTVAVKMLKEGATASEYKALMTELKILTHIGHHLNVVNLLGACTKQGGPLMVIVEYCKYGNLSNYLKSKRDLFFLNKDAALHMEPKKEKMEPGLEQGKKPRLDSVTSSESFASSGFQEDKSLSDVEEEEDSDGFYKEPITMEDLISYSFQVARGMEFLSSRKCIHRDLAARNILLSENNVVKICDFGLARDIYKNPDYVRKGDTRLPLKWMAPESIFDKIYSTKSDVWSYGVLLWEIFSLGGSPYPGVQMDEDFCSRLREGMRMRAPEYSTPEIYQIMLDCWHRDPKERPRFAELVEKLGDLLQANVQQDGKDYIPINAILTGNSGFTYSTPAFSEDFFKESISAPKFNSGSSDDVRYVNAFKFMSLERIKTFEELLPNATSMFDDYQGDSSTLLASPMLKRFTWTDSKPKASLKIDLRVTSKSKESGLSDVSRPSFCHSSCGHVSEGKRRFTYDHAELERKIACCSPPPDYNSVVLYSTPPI

In test [1], “GrB/VEGF121 (from UniProt P15692 27-147)” showed an IC50 nM, cytotoxicity on PAE/VEGFR-1 (-) control cells of over 1000 nM; an IC50 (nM) on PEA/VEGFR-1 cells, construct pre-incubated in FBS (4 h) of over 100 nM; an IC50 (nM) on PEA/VEGFR-1 cells, construct pre-incubated in PBS (4 h) of over 100 nM. In test [2], this substance had an IC50 nM, cytotoxicity on PAE/VEGFR-2 (+) cells of 15.3 nM; an IC50 (nM) on PEA/VEGFR-2 cells, construct pre-incubated in FBS (4 h) of over 100 nM; an IC50 (nM) on PEA/VEGFR-2 cells, construct pre-incubated in PBS (4 h) of 4 nM.

Turning to “LP-GrB/VEGF121 (from UniProt P15692 27-147)”, in test [1], the IC50 (nM) on PEA/VEGFR-1 cells, construct pre-incubated in FBS (4 h) is over 100 nM and the IC50 (nM) on PEA/VEGFR-1 cells, construct pre-incubated in PBS (4 h) was over 100 nM. In test [2], this substance returned an IC50 (nM) on PEA/VEGFR-2 cells, construct pre-incubated in FBS (4 h) of 67 nM and an IC50 (nM) on PEA/VEGFR-2 cells, construct pre-incubated in PBS (4 h) of 2 nM.

Regarding “LA-GrB/VEGF121 (from UniProt P15692 27-147)”, in test [1], the IC50 (nM) on PEA/VEGFR-1 cells, construct pre-incubated in FBS (4 h) is over 100 nM and the IC50 (nM) on PEA/VEGFR-1 cells, construct pre-incubated in PBS (4 h) is over 100 nM. Also, in test [2], the IC50 (nM) on PEA/VEGFR-2 cells, construct pre-incubated in FBS (4 h) is 63 nM and the IC50 (nM) on PEA/VEGFR-2 cells, construct pre-incubated in PBS (4 h) was 8 nM.

In test [1], “EA-GrB/VEGF121 (from UniProt P15692 27-147)” registered an IC50 (nM) on PEA/VEGFR-1 cells, construct pre-incubated in FBS (4 h) of over 100 nM and an IC50 (nM) on PEA/VEGFR-1 cells, construct pre-incubated in PBS (4 h) of over 100 nM. In test [2], this substance registered an IC50 (nM) on PEA/VEGFR-2 cells, construct pre-incubated in FBS (4 h) of 39 nM and an IC50 (nM) on PEA/VEGFR-2 cells, construct pre-incubated in PBS (4 h) of 8 nM.

“EAPVPN-GrB/VEGF121 (from UniProt P15692 27-147)”: the IC50 (nM) on PEA/VEGFR-1 cells, construct pre-incubated in PBS (4 h) in test [1] is over 100 nM. Moreover, the IC50 (nM) on PEA/VEGFR-2 cells, construct pre-incubated in PBS (4 h) in test [2] came out at 5 nM.

As for “PVPN-GrB/VEGF121 (from UniProt P15692 27-147)”, the IC50 (nM) on PEA/VEGFR-1 cells, construct pre-incubated in PBS (4 h) in test [1] is over 100 nM. Moreover, the IC50 (nM) on PEA/VEGFR-2 cells, construct pre-incubated in PBS (4 h) in test [2] turned out to be 8 nM.
